Screen value data for 3 variants are collected here from PMC5081367.

The labels stand for the following.
B1: wild type Lck (WT) [not stated] / receptor for activated C kinase 1 (RACK1), endogenous in NIH3T3 [mouse (endogenous in NIH3T3)] (parent)
chain 1: MGCVCSSNPEDDWMENIDVCENCHYPIVPLDSKISLPIRNGSEVRDPLVTYEGSLPPASPLQDNLVIALHSYEPSHDGDLGFEKGEQLRILEQSGEWWKAQSLTTGQEGFIPFNFVAKANSLEPEPWFFKNLSRKDAERQLLAPGNTHGSFLIRESESTAGSFSLSVRDFDQNQGEVVKHYKIRNLDNGGFYISPRITFPGLHDLVRHYTNASDGLCTKLSRPCQTQKPQKPWWEDEWEVPRETLKLVERLGAGQFGEVWMGYYNGHTKVAVKSLKQGSMSPDAFLAEANLMKQLQHPRLVRLYAVVTQEPIYIITEYMENGSLVDFLKTPSGIKLNVNKLLDMAAQIAEGMAFIEEQNYIHRDLRAANILVSDTLSCKIADFGLARLIEDNEYTAREGAKFPIKWTAPEAINYGTFTIKSDVWSFGILLTEIVTHGRIPYPGMTNPEVIQNLERGYRMVRPDNCPEELYHLMMLCWKERPEDRPTFDYLRSVLDDFFTATEGQYQPQP
chain 2: not shown

The assay covers variants of B1. The assay is described as follows: co-immunoprecipitation (IP: RACK1, blot anti-Lck), quantified. To be noted: with receptor for activated C kinase 1 (RACK1), NIH3T3 Lck infectants, three independent experiments, mean ± SD, parent: 1, read off a plot.
For chain 1 Y505F, the screen value was 1.

For the variant chain 1 W97K Y505F, the screen value came out at 0.12. Consider chain 1 R154K Y505F, for which the screen value stood at 0.38.
